Experimental data as given in patent publication US20250186535A1, “OPHTALMIC COMPOSITIONS AND METHODS OF USING SAME” (Tarsier Pharma Ltd., priority 2021, published 2025).
*1 amine or outer side, *2 acyl side, *3 side chain or, on linkers, in order; H or OH if unused. Where a SMILES comes first, the peptide text is derived from it. [ ]: non-standard residue; d: D form. X1 = C[N+](C)(C)CCOP(=O)([O-])Oc1ccc(/N=N/c2cc(C[C@H](N[*:1])C(=O)[*:2])ccc2O)cc1

Test: Solubility of drug substance in water
Type: physicochemical
Description: Drug Substance [TRS]: is a trifluoroacetate [TFA] salt of phosphorylcholine-tuftsin conjugate represented by Formula 1, SEQ ID NO: 2 (as shown herein). Molecular formula: C43H68N13013P, Appearance: Yellow to orange solid. Solubility: >40 mg/ml in water.

C[C@@H](O)[C@H](N)C(=O)N[C@@H](CCCCN)C(=O)N1CCC[C@H]1C(=O)N[C@@H](CCCNC(=N)N)C(=O)NCC(=O)N[C@@H](Cc1ccc(O)c(/N=N/c2ccc(OP(=O)([O-])OCC[N+](C)(C)C)cc2)c1)C(=O)O [TRS, phosphorylcholine-tuftsin conjugate] (H-TKPRG[X1]-OH)
solubility: > 40 mg/mL
